Laboratory results from paper doi:10.1101/2022.07.28.501832.

Biological target: human RXFP4 on stably transfected CHO-K1 cells (human) (UniProt Q8TDU9)
Assay: competitive binding of a europium-labelled ligand on cells

Chain of UniProt Q8TDU9 (Q8TDU9 whole entry): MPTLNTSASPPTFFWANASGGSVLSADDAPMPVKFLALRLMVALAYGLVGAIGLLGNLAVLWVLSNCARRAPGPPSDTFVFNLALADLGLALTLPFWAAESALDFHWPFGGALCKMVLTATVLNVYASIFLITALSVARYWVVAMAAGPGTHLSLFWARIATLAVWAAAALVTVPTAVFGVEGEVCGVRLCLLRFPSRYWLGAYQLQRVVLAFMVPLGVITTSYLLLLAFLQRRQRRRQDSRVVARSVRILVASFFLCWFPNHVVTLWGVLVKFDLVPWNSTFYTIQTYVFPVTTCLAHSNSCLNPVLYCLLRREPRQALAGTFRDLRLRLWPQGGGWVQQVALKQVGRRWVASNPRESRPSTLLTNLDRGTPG

Q: How did the pKi turn out when “recombinant two-chain human insulin-like peptide 5 (INSL5) (ligand)” was run?
A: 8.19
